Our source for the EC50 values is patent US20250018053A1.

Targets include Human N4 (human) (UniProt Q96NY8); Monkey N4; Mouse N4; Rat N4.
Assay in all cases: flow cytometry, transfected CHO cells

Sequence of Human N4 (human) (Q96NY8 32-510): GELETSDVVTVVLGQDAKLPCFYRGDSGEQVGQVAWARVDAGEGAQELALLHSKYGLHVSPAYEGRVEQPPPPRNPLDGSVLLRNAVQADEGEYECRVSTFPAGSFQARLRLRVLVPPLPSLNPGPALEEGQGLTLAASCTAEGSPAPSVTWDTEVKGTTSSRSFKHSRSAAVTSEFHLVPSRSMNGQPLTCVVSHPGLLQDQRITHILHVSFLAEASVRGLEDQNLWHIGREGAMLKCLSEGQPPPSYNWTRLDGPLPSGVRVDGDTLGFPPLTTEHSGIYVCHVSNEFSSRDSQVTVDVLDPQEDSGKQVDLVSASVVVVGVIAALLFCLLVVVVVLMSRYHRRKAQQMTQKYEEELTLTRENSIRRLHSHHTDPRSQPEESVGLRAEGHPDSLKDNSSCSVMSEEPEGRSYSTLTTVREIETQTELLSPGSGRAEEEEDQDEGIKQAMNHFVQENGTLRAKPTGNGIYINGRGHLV

Consider Enfortumab (HA22), for which the EC50 is 0.346 nM with Human N4 (human), 0.0678 nM with Monkey N4, 41.1 nM in the assay with Mouse N4 and 0.097 nM with Rat N4.
